This data set in a line: soluble on expression in E. coli; label from the status in PepcDB or PDB records.
“GSHMASMTGGQQMGRGSEFRSMTAIEDILQITTDPSDTRGYSLLKSEEVPQGSTLGVDFIDTLLLYQLTENEKLDKPFEYLNDCFRRNQQQKRITKNKPNAESLHSTFQEIDRLVIGYGVVALQIENFCMNGAFINYITGIVSNVNSYTDFLSQIIQRAILEGTALDLLNAVFPTLLEYCNKHVSHFDLNESVIYNNVLTIFELFVTFKPIAEIFTKIDGFFADYSCKPQDFERKTILGPILSLSPIEAAVAIRNYGDNLLRSKQQTAMIHESLQAEHKVVIDRLFFIVDKLVRGSLNSRTDMISYFAHIANKNHLRRADHPPFKELSSNGFMSNITLLLVRFSQPFLDISYKKIDKIDANYFNNPSLFIDLSGETRLNSDFKEADAFYDKNRKTADSKPNFISDCFFLTLTYLHYGLGGTLSFEEKMGSEIKALKEEIEKVKKIAANHDVFARFITAQLSKMEKALKTTESLRFALQGFFAHRSLQLEVFDFICGASTFLIRVVDPEHEFPFKQIKLPLIPDQIGVENVDNADFLRAHAPVPFKYYPEFVVEGPVNYSLYISKYQTSPIFRNPRLGSFVEFTTMVLRCPELVSNPHLKGKLVQLLSVGAMPLTDNSPGFMMDIFEHDELVNKNLLYALLDFYVIVEKTGSSSQFYDKFNSRYSISIILEELYYKIPSYKNQLIWQSQNNADFFVRFVARMLNDLTFLLDEGLSNLAEVHNIQNELDNRARGAPPTREEEDKELQTRLASASRQAKSSCGLADKSMKLFEIYSKDIPAAFVTPEIVYRLASMLNYNLESLVGPKCGELKVKDPQSYSFNPKDLLKALTTVYINLSEQSEFISAVAKDERSFNRNLFVRAVDILGRKTGLASPEFIEKLLNFANKAEEQRKADEEEDLEYGDVPDEFLDPLMYTIMKDPVILPASKMNIDRSTIKAHLLSDSTDPFNRMPLKLEDVTPNEELRQKILCFKKQKKEEAKHKASE”: the “soluble on expression in E. coli” value is listed as “soluble”. To “MGSDKIHHHHHHMKKEQIIQGPCTIKVLEGEARILGIEIQKNDLLTIPSDKTYTLVYDENTRLETDCKKLLDNLNLRWDEIVEEIINTVGVVLLLGNVDSGKTYLTNLFTNLATSYLKIIDADVGQSTLFLPTFIAELKPMRKTLNLEELGYDTLEFFGDITPSTNPRLHVQKILRLYETTPKERLTVIDTDGWTVGLNSMLHKFELIYTIDPDYIIVFDQKIKDSLPENYRNKAILLKSVNLHKSRSERKANRIAKYERYFKEAKNIKTLSENLLGKQISNILYCAWGEYIQLSDEEPCTDYYIPLNLLKGALLGIIENKKVIGAALLDDLKENEITILSRVNKFTGLVLGYISLNDKFEERRIRFRKCKS” belongs “not soluble”; to “MGFFDSGIGGMTVLYEAIKVLPYEDYIFYADTLNVPYGEKSKGKVKEYIFNAAEFLASQNIKALVIACNTATSIAIEDLRRNFDFPIIGIEPAVKPAINKCTEERKRVLVVATNLTLKEEKFHNLVKEIDHHDLVDCLALPGLVEFAENFDFSEDKIIKYLKNELSSFDLKQYGTIVLGCTHFPFFKNSFEKLFGIKVDMISGSVGTAKQLKKVLADRNQLGKGSGSITFFNSGHKIVDQEVISKYKRLFEILDETQRSHVGH”, “not soluble”; to “MGSDKIHHHHHHMIKALYTSITGMNATQNALSVTSNNIANAQTVGYKKQKAMFDDLLYNNSIGAKGDDRYAGTNPKSIGNGVKMSGTVTDYTDGTITLTGGKTQAAMEGNGFFVVGDSKAGNMEFTRKGTFTISSDYYITNTEGQYVFAYPADPSTGNVDLSGIPGPLQVPMGSAIGGIRTSKGVVGGNIPADAKQITQELPVYDNAGNTWTMRVEFKQDGEHNYKYKVYMRNESKKETAFNEVNGAGGEVKFDAVGKPDPVNPEANIPFNGGTVKIDFSKLTNHPTEKTLAVTDVDGRAAATVKDCFIADGGYVMVKYSDGSMKAAGQLAVAMFPNEGGLMKTGNGNYTATNTTGILAMGVSGQNGAGKVRGSAQEGANVDLSVEFVDLMLYQRGFQGNAKVIKISDEVLNEVVNLIR”, “not soluble”. The entry for “MAHHHHHHMGKKRFYAVAVGRQTGVFSTWEECQKQVSGFSGARFKSFLTLQEAQAYASGVQDVEPGSVGTSLVADSHTPVLVGVKRALSLDVTLDAVEVDAADDGNEVDDESKQQVLSPEWVEARKREAVVVYVDGACRNNGSRSRERRPRAGFGGFYGDGDSRNFKFPLPAHEPQTNQRAELSALIHVLRVALDSHPCYNLCVYSDSKYTVMGVNSYLHRWERNGFKTAGGGDVANIDLWSQLTKLRNRHLSRCAERFTMEFRFKASLAAIAARAVALQLKHVPGHAGVYGNEMADRLAVEACESPFG” is “not soluble”; for “MGSDKIHHHHHHMKDTNRTHSADAATVEEALAADNHQGIVDSEGATALAMQNTLLTPRFYTTDFDEMDSLDVSSVREDWDTLIAQMKSDPNKGHFKKNEDWDSVDWDGMEPALKREFIDFLVSSCTAEFSGCVLYKEMKRRGNNEDIVTLFQLMARDEARHAGFINDALREAGIAVNLGFLTQKKKYTYFRPKFIYYATYLSEKIGYARYITIFRHLEANPEHRFHPIFKWFREWCNDEFSHGEAFALIMKSDPKFTQKWQNKLWIKFFLTAVYSTMYVRDHQRPVFHAALGVDPDWYAHEVFTKTSEITKQIFPITLDIENPRWQRGLEAMQRANVDLADAKANGKLFKRIGASIRAGAAFVNLFTIPANKHDAPASVRLEPAY” it is “not soluble”; for “MDIDMNYPSITTLMSNESANLLIIWGNATPDISYLSYTTNPMLGDYVLNVSAINGCTEELIATHLVPTLENATQWVYDAGEYWDNYSFTDESTPLPGLSWPFNE” it is “not soluble”.

On to “MGFGIGDLFWIFLLLTSLQPLWQKRQIEYRRLRALQEFQQERKSRVILLIHRQESISFLGIPISRYITIEDSEQILRAIRLTPPDVPIDLILHTPGGLVLATEQIARALIRHQAKVTVFVPHYAMSGGTMLALASDEIIMDANAVLGPVDPQLGNYPAASILKVIEDKPISEIDDQTLIMADLSRKAIGQVQRFVRTLLKDSIPKQKVLPENIESIIEALTTGRVTHDYPITIEEATEMGLPVTVGLPHSIYDLMDLYPQAQGGRPSVQYIPMPYNDPRPIL”, for which the “soluble on expression in E. coli” value was “not soluble”. With “MEKTITIYTDGAASGNPGKGGWGALLMYGSSRKEISGYDPATTNNRMELMAAIKGLEALKEPARVQLYSDSAYLVNAMNEGWLKRWVKNGWKTAAKKPVENIDLWQEILKLTTLHRVTFHKVKGHSDNPYNSRADELARLAIKENS”, the “soluble on expression in E. coli” value was “soluble”. Consider “MGSDKIHHHHHHMTGQNPAPDEIVIDTGNPHPARMYDWFLGGKDNYPVDEEMGRQLLALDPRVPVMAKVNRAFMHRATRWLAMNGVRQFLDIGTGIPTEPNLHQIAQQVAPESRVVYCDNDPIVLAHAAALLRSTPEGVTEYVQADVRDPDTIVEQAGKVLDFSKPVALSLVALLHFVSDEDGAYELVDRLLAEVPSGSYLMLSHATADFTPKKSEEAGELYKARSLTLALRSRDEVARFFRDLELVEPGVEVPDKWRPELGEPVPGQDDEPIPGYAAVGRKP”, for which the “soluble on expression in E. coli” value was “not soluble”.

For “MDGFDASPKAIAARRAKVFDPVGGYEYFVNTYFPHYIRSPEKSELHAFLFSRLPEIIRSPKGENEAVGAPRGEGKSTKVTQLFTLWCIVTGQKHYAVIVMDSIDQAYPMLEAIKAELEFNPRLKTDFPEVCGQGRVWQAGTIVTANDVKVQVAGSGKKLRGLRHGPYRPDLTVLDDIENDEQVRNPEQRDKLNAWLTKTVLPLGGVGQKYDVIYIGTILHYDSVLNRTLNNPFWHGIKFKAMKRWPDRMDLWDRWEELFRNDGETVAEAFYQANKDEMERGAVTSWAARGVLALMKIRARDGHATFDSEYQNDPVSGEDAPFAKSMKFWNDLPSDLVYFGALDPSLGKAGASRDPSAIIIGGYQRVTGKLYVVEAQIKKRLPDLIIEDVIRLHRQYRCKLWFVETVQFQEFLKDELVKRSAARGIPVPARAVKPVSDKLLRIETLQPHMANGLILLNESQQTLIQQFRHFPKADHDDGPDAVHMLWSGAVANCVPIEWQSPTDNDFDDEIKSKWSR”, the “soluble on expression in E. coli” value is “not soluble”. Turning to “MSLNQSYFNLLGNITWLWMNSSLHKEWSCELLARNVIPAIENEQYMLLIDNGIPIAYCSWADLNLETEVKYIKDINSLTPEEWQSGDRRWIIDWVAPFGHSQLLYKKMCQKYPDMIVRSIRFYPKQKELGKIAYFKGGKLDKKTAKKRFDTYQEELATALKNEFNFIKKEGHHHHHH”, the “soluble on expression in E. coli” value was “soluble”.

In the case of “KKISQYACQRRTTLNNYNQLFTDALDILAENDELRENEGSCLAFMRASSVLKSLPFPITSMKDTEGIPCLGDKVKSIIEGIIEDGESSEAKAVLNDERYKSFKLFTSVFGVGLKTAEKWFRMGFRTLSKIQSDKSLRFTQMQKAGFLYYEDLVSCVNRPEAEAVSMLVKEAVVTFLPDALVTMTGGFRRGKMTGHDVDFLITSPEATEDEEQQLLHKVTDFWKQQGLLLYCDILESTFEKFKQPSRKVDALDHFQKCFLILKLDHGRVHSEKSGQQEGKGWKAIRVDLVMCPYDRRAFALLGWTGSRQFERDLRRYATHERKMMLDNHALYDRTKRVFLEAESEEEIFAHLGLDYIEPWERNA”, the “soluble on expression in E. coli” value is “soluble”.

Turning to “GLVPRGSHMTGRMLTLDGNPAANWLNNARTKWSASRADVVLSYQQNNGGWPKNLDYNSVGNGGGGNESGTIDNGATITEMVFLAEVYKSGGNTKYRDAVRKAANFLVNSQYSTGALPQFYPLKGGYSDHATFNDNGMAYALTVLDFAANKRAPFDTDVFSDNDRTRFKTAVTKGTDYILKAQWKQNGVLTVWCAQHGALDYQPKKARAYELESLSGSESVGVLAFLMTQPQTAEIEQAVRAGVAWFNSPRTYLEGYTYDSSLAATNPIVPRAGSKMWYRFYDLNTNRGFFSDRDGSKFYDITQMSLERRTGYSWGGNYGTSIINFAQKVGYL”, the “soluble on expression in E. coli” value is on record as “soluble”. The entry for “MYNLLTKQEIQLLSLIEYLYDSKEKVPMQVLRRKYEFSHYNINNLLNQLTLLISRVNTHENVHIRIINNQQSIELVADENIPIELMKEAVVRGSLTYMLALDLLLKRYTSAKDFCEEHFINFSIFKQVSDRLNNHLARFNCYLNLKRREKICGNEKDFRSFFYSLFFISGTSLVPFLSKTNQAQLQNFIEIIKNRYPYFTYTDLRKLKLIMSIGLLRYQSGFTITNYPEVAAINLAFPYSEFQLLVNDCFIDEQKEPDTWQAEIHFYYDFFSTLTMYSLVQMETINFANLAIMGMDNSPHATWIFEKCTQLQLDLSAIEVVFLLVNLSNASERLIHFPVEEELSYEVANVSLYEKQYPNVSRTTNYFLKRLPFDKQHPLDALFKETIFLIIRSVLLNKQIPVKILLHSSINQIQENWLAKEINNYCDVPLKFVNHIQEVPDLVITDKNNPLFHASKTFYWHPVPYLDEYYNLKQVVRKIYFAKLRGENSLEGIGC” is “not soluble”.

Consider “MSLTAYQASSQARVDAAMHTLFTAPSPELARLYEAMRYSVMNGGKRVRPLLAYAACEALGGKPEQANGAACAVELIHAYSLVHDDLPAMDDDDLRRGQPTTHKAFDEACAILAGDGLQSLAFSALLDPALSDASAEIRLRMVTTLAQAAGPAGMVGGQAIDLGSVGLKLDQQALEYMHRHKTGALIEASVILGALASGRAEKGELKALQTYAQAIGLAFQVQDDILDVESDTATLGKRQGADIARDKPTYPALLGLAAAKEYALELRDQALHALRPFDAAAEPLRELARYIVERRSEGHHHHHH”, for which the “soluble on expression in E. coli” value is on record as “soluble”.

Turning to “MSLIEEEVLKIIKPTEEDKKGIEKVLEIIRERLNKLDFEVEGSFRKGTWLRQDTDIDVFVFYPKDVGKEYLERNALNDIINRIKDLDYTLAYAEHPYVIVNINNVEVDIVPALRVESGDKAITAVDRTPFHTKYVTSHLDERGKDEVRLLKRFMKGIGVYGAELKVQGFSGYATELLIIYYGNFRKVLEEASKWKHPIKIELTKPMKIFSEPLIIPDPVDPKRNVTAAVSLKNIATFSIAAKYYLKNPSIEFFFPSKKVEEKVKGDVLILRLNLDEKSSEDIVWGQIKRSVNKIERALKQYGFRVIDVQAWGDTNNITIAVQLESKNIGQYYLNIGPQYYSGTIEDFIQKNDNIWVGEDGRLYSIKERKEYDAETIAKKNIVLKVKYNIESYWLQNTEDQQIMKFLRKTPTWLKEGHHHHHH”, the “soluble on expression in E. coli” value is on record as “not soluble”.

The record behind these values is the DeepSol protein solubility set.
